For assay [1], the target named is BaL.01 Env trimeric spikes on pseudotyped viruses (HIV-1 BaL.01).
The target is the same in assay [2]. This is another data set of the same source.
Assay [3] has the same target. This is another data set of the same source.

Where two headings read alike, the source gives them in different places.

Turning to DAVEI-L4(ΔCRAC), in assay [1], the EC50 of virolysis (p24 release from HIV-1 BaL.01 pseudovirus, sandwich ELISA) was 28.3 nM and the IC50 of inhibition of HIV-1 BaL.01 pseudovirus infection of HOS.T4.R5 cells was determined as 1.1 nM.

Turning to DAVEI-L4(ΔCRAC)-W3,7,9,15A, in assay [2], the EC50 of virolysis (p24 release from HIV-1 BaL.01 pseudovirus, sandwich ELISA) was 122 nM. This substance yielded an IC50 of inhibition of HIV-1 BaL.01 pseudovirus infection of HOS.T4.R5 cells in assay [3] of 0.78 nM. As to DAVEI-L4(ΔCRAC)-W7,9,15A, the EC50 of virolysis (p24 release from HIV-1 BaL.01 pseudovirus, sandwich ELISA) in assay [2] is 43.1 nM. For the same substance, in assay [3], the IC50 of inhibition of HIV-1 BaL.01 pseudovirus infection of HOS.T4.R5 cells stood at 0.36 nM.

As to DAVEI-L4(ΔCRAC)W9,15A, the EC50 of virolysis (p24 release from HIV-1 BaL.01 pseudovirus, sandwich ELISA) in assay [2] stood at 49.7 nM. In addition, the IC50 of inhibition of HIV-1 BaL.01 pseudovirus infection of HOS.T4.R5 cells in assay [3] turned out to be 0.45 nM.

In assay [2], DAVEI-L4(ΔCRAC)W15A gave an EC50 of virolysis (p24 release from HIV-1 BaL.01 pseudovirus, sandwich ELISA) of 46.8 nM. The substance also yielded an IC50 of inhibition of HIV-1 BaL.01 pseudovirus infection of HOS.T4.R5 cells in assay [3] of 0.4 nM. For DAVEI-L4(ΔMPER), in assay [1], the IC50 of inhibition of HIV-1 BaL.01 pseudovirus infection of HOS.T4.R5 cells was 1.4 nM.

The record behind these values is publication PMC5444381.
